No end group written: not given here.
Columns and labels:
[1] = biological target: UAG receptor on INS-1E pancreatic β cells (rat); test: competition with [125I-Tyr4]-UAG on INS-1E β-cell membranes, mean±SEM of three experiments
[2] = biological target: UAG receptor on HIT-T15 pancreatic β cells (hamster); test: competition with [125I-Tyr4]-UAG on HIT-T15 β-cell membranes, mean±SEM of three experiments

Row | IC50 [1] | IC50 [2] | Binder
1 | 2.4 nM | 3.8 nM | SPEHQRVQ (not fully specified) [UAG (6-13)]
2 | 2 nM | 2.6 nM | GSSFLSPEHQRVQQRKESKKPPAKLQPR [unacylated ghrelin UAG (1-28)]

Source: patent US20100168033A1, “UNACYLATED GHRELIN AS THERAPEUTIC AGENT IN THE TREATMENT OF METABOLIC DISORDERS” (ALIZE PHARMA SAS, priority 2007, published 2010)
